Where two headings read alike, the source gives them in different places.
Key:
[1] = target: marmoset monkey IL4Rα-his protein (marmoset monkey); assay: indirect ELISA, marmoset IL4Rα-his coated
[2] = target: recombinant human IL4Rα-his protein (human) (UniProt P24394); assay: capture ELISA, mAb captured by anti-human IgG, biotinylated IL4Rα-his
[3] = target: recombinant human IL4Rα-his protein (human) (UniProt P24394); assay: SPR Biacore, mAb captured, IL4Rα-his analyte
[4] = target: recombinant human IL4Rα-his protein (human) (UniProt P24394); assay: SPR Biacore, mAb captured, IL4Rα-his analyte; remark: listed apart in the source
[5] = target: recombinant human IL4Rα-his protein (human) (UniProt P24394); assay: benchmark blocking ELISA, competitor benchmark coated (self-competition), biotinylated IL4Rα-his
[6] = target: human IL4Rα expressed on the surface of 293F-IL4Rα cells (human) (UniProt P24394); assay: flow cytometry on 293F-IL4Rα cells
[7] = target: human IL4Rα on HEK293T-IL4Rα-STAT6-STAT6LUC-LB2 cells (human) (UniProt P24394); assay: cell-based or functional assay
[8] = target: recombinant human IL4Rα-his protein (human) (UniProt P24394); assay: IL4-IL4Rα blocking ELISA, IL4Rα-his coated, biotinylated IL4
[9] = target: recombinant human IL4Rα-his protein (human) (UniProt P24394); assay: SPR Biacore, mAb captured, IL4Rα-his analyte; remark: listed apart in the source
[10] = target: human IL4Rα on HEK293T-IL4Rα-STAT6-STAT6LUC-LB2 cells (human) (UniProt P24394); assay: cell-based or functional assay; remark: listed apart in the source
[11] = target: cynomolgus monkey IL4Rα-his protein (cynomolgus monkey); assay: indirect ELISA, cynomolgus IL4Rα-his coated
Sequence of cynomolgus monkey IL4Rα-his protein (cynomolgus monkey) (chain, as listed by the source): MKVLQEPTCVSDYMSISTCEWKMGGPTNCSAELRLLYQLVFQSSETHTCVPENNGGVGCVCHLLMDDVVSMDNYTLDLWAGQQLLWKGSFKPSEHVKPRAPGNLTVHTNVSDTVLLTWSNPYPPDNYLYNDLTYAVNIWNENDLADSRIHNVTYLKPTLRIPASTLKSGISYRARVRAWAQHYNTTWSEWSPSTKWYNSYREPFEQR

[12] = target: recombinant human IL4Rα-his protein (human) (UniProt P24394); assay: IL4-IL4Rα blocking ELISA, IL4Rα-his coated, biotinylated IL4; remark: listed apart in the source
[13] = target: human IL4Rα expressed on the surface of 293F-IL4Rα cells (human) (UniProt P24394); assay: cell-based ligand blocking FACS, 293F-IL4Rα cells, biotinylated IL4
[14] = target: human IL4Rα expressed on the surface of 293F-IL4Rα cells (human) (UniProt P24394); assay: flow cytometry on 293F-IL4Rα cells; remark: listed apart in the source

Sequence of marmoset monkey IL4Rα-his protein (marmoset monkey) (chain, as listed by the source limits assumed): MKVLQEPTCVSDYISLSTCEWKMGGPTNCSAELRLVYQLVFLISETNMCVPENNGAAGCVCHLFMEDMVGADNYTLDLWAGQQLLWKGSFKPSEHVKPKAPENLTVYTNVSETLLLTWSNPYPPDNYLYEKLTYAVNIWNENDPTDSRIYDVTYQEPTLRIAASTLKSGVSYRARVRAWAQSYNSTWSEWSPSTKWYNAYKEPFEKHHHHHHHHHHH

B1: anti-IL4Rα antibody benchmark (dupilumab) (antibody, INN chains, looked up, V domains shown)
VH: EVQLVESGGGLEQPGGSLRLSCAGSGFTFRDYAMTWVRQAPGKGLEWVSSISGSGGNTYYADSVKGRFTISRDNSKNTLYLQMNSLRAEDTAVYYCAKDRLSITIRPRYYGLDVWGQGTTVTVSS
VL: DIVMTQSPLSLPVTPGEPASISCRSSQSLLYSIGYNYLDWYLQKSGQSPQLLIYLGSNRASGVPDRFSGSGSGTDFTLKISRVEAEDVGFYYCMQALQTPYTFGQGTKLEIKR
Question: How did the EC50 [1] turn out when B1 was run?
Answer: 1.72 nM

Question: And the EC50 [2]?
Answer: 0.05 nM

Question: And the Kd [3]?
Answer: 0.466 nM

Question: What about the Dissociation (%) [4] of the same binder?
Answer: -2.64%

Question: And the End (RU) [4]?
Answer: 70 RU

Question: What about the Kd [4] of the same binder?
Answer: 0.188 nM

Question: And the Start (RU) [4]?
Answer: 71.9 RU

Question: And the koff [4]?
Answer: 6.25e-05 s⁻¹

Question: What about the kon [4] of the same binder?
Answer: 333000 M⁻¹ s⁻¹

Question: What about the IC50 [5] of the same binder?
Answer: 0.19 nM

Question: And the EC50 [6]?
Answer: 0.4 nM

Question: And the Inhibition of IL4-induced STAT6 phosphorylation (IC50, nM) [7]?
Answer: 0.7 nM

Question: And the Inhibition of IL13-induced STAT6 phosphorylation (IC50, nM) [7]?
Answer: 0.84 nM

Question: And the IC50 [8]?
Answer: 2.06 nM

Question: And the Kd [9]?
Answer: 0.746 nM

Question: What about the Inhibition of IL4-induced STAT6 phosphorylation (IC50, nM) [10] of the same binder?
Answer: 0.37 nM

Question: And the Inhibition of IL13-induced STAT6 phosphorylation (IC50, nM) [10]?
Answer: 0.48 nM

Question: What about the EC50 [11] of the same binder?
Answer: 0.67 nM

Question: And the IC50 [12]?
Answer: 1.74 nM

Question: And the IC50 [13]?
Answer: 0.42 nM

Question: What about the EC50 [14] of the same binder?
Answer: 0.46 nM

From patent publication US20240343815A1
